Test results published in the DeepSol protein solubility set.

Experiment: soluble on expression in E. coli; label from the status in PepcDB or PDB records

Row | Sequence | soluble on expression in E. coli
1 | KHPNNAIIIGDNLDALKLLKSAYSEKIKMIYIDPPYNTGNDEFIYPDNFRQDYQKILREVGLMEIDENGKEIESESLKFFKNTQGSGTHSGWLSFMLPRLKLARDLLKEDGVIFISIDDNECANLKILCDEIFGEDNFVGDFIRKTKSTTNDAKIGLNYQHEFLLCYAKDKNYTNLLGGEKNLENYKNPDNDPNGAWINDNPSAKSGNMKTGYFGVTNPYTNKVDYPPVGMFWRFSQNTIQKHIDEGRICFKKEHKDNERGFIYKRYLKDLKTTQKTFDSLIFSDNCYMNQAATKELLNLGMGEYFTYPKGVEFMKKIILHSTTPNEGDIILDFFAGSGTTVHAVMELNAEDKGNREFILVQIDEEIKEDESAYDFCKKELKSAKPVISDITIERVKRAAQKISQLSKDSGLDLGFKVYTLQDKVQII | not soluble
2 | MNKLVCSTFAILAIIAISQVQSAVLPVSSKEVALITSSASTTSSSETSIDTLGSSRVKRQGGCGCCGCGCGCCGCGGGGGGGCGCCCCRPKCCCCCRRCCTCCRTCCCTRCCTCCRPCCCGCGCGCGCCGCGGGGRKRRSLQNLRIALANKIEGIAKVVKGSAVEASVMNALAPVNDATVEEKKDVIN | not soluble
3 | MGHHHHHHSHMVGTQPRFLVKIHQKFYWAIRDDLIIHGGYKRSGLTSSFALVAMGPLGRPWAASFGFFFLAVVSLATPTPGEDDDIPVKIHRLTFVKGLVPDVTGGSSYYVCVYPSRKLFCTPTRWKDLSRFLNSETLNQVCSARTIYSVVPVEMLRIISLPLPPEIKSIVGGSIRSQYVSFPTFISLHPAKLPIWKSFANLKVSMKFRSSQWEVAFSVVSKTDYAITYWAEIPGFLIHESATINLINQPLLALYADLHVDMVMRLTDKFIYCQTYTLQQKNLTDPRTGKRPTSSVLIPSPHVKNCQIRRRNETHFVDTCSSAWDNYTSEAHNISRNSSSRGSNATQLVNITANPCTLPTLWDNWPCYTNYRSSPVPEIVIHENILLEGRAIYIIYHQIGLFDQPRLCVATFWMSKEETLLMQLDYPCEVSVEKKGKKFFIKSVVSMYHAISMVTFIWEYGIEIYDFLE | not soluble
4 | MTYTTRQIGAKNTLEYKVYIEKDGKPVSAFHDIPLYADKENNIFNMVVEIPRWTNAKLEITKEETLNPIIQDTKKGKLKFVRNCFPHHGYIHNYGAFPQTWEDPNVSHPETKAVGDNDPIDVLEIGETIAYTGQVKQVKALGIMALLDEGETDWKVIAIDINDPLAPKLNDIEDVEKYFPGLLRATNEWFRIYKIPDGKPENQFAFSGEAKNKKYALDIIKETHDSWKQLIAGKSSDSKGIDLTNVTLPDTPTYSKAASDAIPPASLKADAPIDKSIDKWFFISGSV | soluble
5 | MQTLGFRRPNQVREAVYRHLKDLLLSGRFSPGERLSEPLLAQELGVSRTPVREALMRLAEEGLVELVPGKGARVRVFAPEEVEEVYGVRALLEGEAAREAALRATPWELAELERLLQAIDEAPREDYPEQMRRDLEFHRALVRLSGNRTLYRLYEDLLATLALARSALPTLSQDEATRREHRAILEALLRRDPEEARRAVEAHVFRFRDLVVGRLREEGG | soluble
6 | MGSDKIHHHHHHMTSMEFKIKRDGLALQARLETPAAPSSTLVILMHGFTADMGYDTTQFVPQLAQALVAHGLAVLRFDFNGHGCSEGRFQDMTVINEIADAKAVLDEALTLHYDHIVLAGHSQGGVVASMLAGYYPDVVDKLILMAPAATLKSDAQQGVLQGATYDPQHIPAYLNIRDGLKVGGFYLRTAQQLPIYEVAQQYAGSVTLIHVTADTVVSPQASEKYHEVYQHSQLHWVQDGGHRFSGDARATAIQLALAAFK | not soluble
7 | MGSDKIHHHHHHMVKKREGDEVQSELMRILAEKQERKENIALVTVISSNSPRGCRAGEMMLVDRFGYIIGDGIGDSLLQENAQREAQICINEGISRRVILPSEEGMTEVFINAFCHRDQLIIVGSGNVALNVYRIASIVGYSITVIDNRAETLSRERFPEAKELLLGDIVELLKAYNIDENTSIVLLSYHHEFDEAALLTVIHSPARYIGIMGNKHKVTAYFSKLNELNIAEELISRVHVPVGIDIGGERAAEIALAVVAEMQAIKYGRAGGFRILQSEITGKVERDELF | not soluble
8 | MVHFIFIALRSMRFMRRLVRNLQYLLLPITSSLLFI | soluble
9 | MSSSLFAPTIETIDYPFPPKPVPLSDAQKADYKARIKQLLIEKDAVLVAHYYTDPEIQALAEETGGCVSDSLEMARFGRDHPAKTLIVAGVKFMGETAKILSPEKTILMPTLEATCSLDLGCPIDKFSAFCDAHPDHTVVVYANTSAAVKARADWVVTSSIALEIVEHLDSEGKKIIWGPDRHLGSYIAKQTGAEMLMWQGDCIVHDEFKANALRDLKSVYPDAAILVHPESPASVVAMADAVGSTSQLIKAAQTMPNERFIVATDRGIFYKMQQAAPGKTLIEAPTGGNGATCKSCAHCPWMAMNGLKAIEASLSNSDKTTHEIFVDEDLRVKALIPLTRMLDFAKTLNMKVKGNALEHHHHHH | not soluble
10 | MPGGVSSPVRAFKSVGGQPIVFDHVKGAHIWDVDGNQYIDYVGSWGPAIVGHAHPEVIDALHAALEKGTSFGAPCLLENILAEMVIAAVPSVEMVRFVNSGTEACMAVLRLMRAYTQREKVIKFEGCYHGHADMFLVKAGSGVATLGLPDSPGVPKATTAATLTAPYNDLEAVSRLFEQYPNDIAGVILEPVVGNAGFIPPDAGFLEGLRELTKQYGALLVFDEVMTGFRIAYGGAQEKFGVTPDLTTLGKVIGGGLPVGAYGGRAEIMKMVAPAGPVYQAGTLSGNPLAMTAGIKTLEILSRPGSYEHLDRITGKLVQGLLDAAREFGHEVCGGHISGMFGLFFTAGPVTNYEQAKQSDLKKFAAFHRGMLEQGIYLAPSQFEAGFTSLAHTEADIERTIAAARTVLSQL | soluble
11 | MKKILVLGGAHIDRRGMIETETAPGASNPGSWMEEAGGGGFNAARNLSRLGFEVRIIAPRGGDVTGEVVAEAARQAGVEDTPFTFLDRRTPSYTAILERDGNLVIALADMDLYKLFTPRRLKVRAVREAIIASDFLLCDANLPEDTLTALGLIARACEKPLAAIAISPAKAVKLKAALGDIDILFMNEAEARALTGETAENVRDWPNILRKAGLSGGVVTRGASEVVAFNGTEKAILHPPLIREVKDVTGAGDAMASGYLAAIAEGKTIREALRQGAAAAAITVQSSFATSQDLSKDSVEAMLGLVPQAEMLA | soluble
12 | MGSDKIHHHHHHMNAWEVNFDGLVGLTHHYAGLSFGNEASTRHRFQVSNPRLAAKQGLLKMKALADAGFPQAVIPPHERPFIPVLRQLGFSGSDEQVLEKVARQAPHWLSSVSSASPMWVANAATIAPSADTLDGKVHLTVANLNNKFHRSLEAPVTESLLKAIFNDEEKFSVHSALPQVALLGDEGAANHNRLGGHYGEPGMQLFVYGREEGNDTRPSRYPARQTREASEAVARLNQVNPQQVIFAQQNPDVIDQGVFHNDVIAVSNRQVLFCHQQAFARQSQLLANLRARVNGFMAIEVPATQVSVSDTVSTYLFNSQLLSRDDGSMMLVLPQECREHAGVWGYLNELLAADNPISELKVFDLRESMANGGGPACLRLRVVLTEEERRAVNPAVMMNDTLFNALNDWVDRYYRDRLTAADLADPQLLREGREALDVLSQLLNLGSVYPFQREGGGNG | not soluble
13 | MSLQIKDEILSLLKRGKNLLAFSYGSDSSVLFYLLMQEKIDFDLVMINYKTRKNSDLEELKAKELALKFHKKIFIKHAPKFQSNFEKKARDFRYDFFEKICLEQGYDHLILAHHLNDQFEWFLMQLSRGAGLAEILGMQECEKRSNYTLLRPLLFISKDEISSFLKEKDIFYFHDESNENEKYFRNYIRKNFSNAFVSEFHQGLKRSFSYLDEDRKKLYDFENIKEIQGLLICPKNESLIARAVKMKGLLLSTAQRKELLKGDCVLGGKIALAYKNEQAIVFEYETCQKLPKNFKEECRIAKIPRLLRAYLYNHKIDISSLSEGHHHHHH | soluble
14 | GMTTPPARTAKQRIQDTLNRLELDVDAWVSTAGADGGAPYLVPLSYLWDGETFLVATPAASPTGRNLSETGRVRLGIGPTRDLVLVEGTALPLEPAGLPDGVGDTFAEKTGFDPRRLTTSYLYFRISPRRVQAWREANELSGRELMRDGEWLVTD | soluble
15 | AEEGAVAVCVRVRPLNSREESLGETAQVYWKTDNNVIYQVDGSKSFNFDRVFHGNETTKNVYEEIAAPIIDSAIQGYNGTIFAYGQTASGKTYTMMGSEDHLGVIPRAIHDIFQKIKKFPDREFLLRVSYMEIYNETITDLLCGTQKMKPLIIREDVNRNVYVADLTEEVVYTSEMALKWITKGEKSRHYGETKMNQRSSRSHTIFRMILESREKGEPSNCEGSVKVSHLNLVDLAGSERAAQTGAAGVRLKEGCNINRSLFILGQVIKKLSDGQVGGFINYRDSKLTRILQNSLGGNPKTRIICTITPVSFDETLTALQFASTAKYMKNTPYVNEVSTDEALEHHHHHH | soluble
16 | MGSDKIHHHHHHMIEQELTYQDLRIPSSEIYEAMGYKDSIPDQMVIDETNTLLKRVIPLLRPRFAFFFMEGTLDIEKETLSVQSIHPPTVNPIQDTIPTRSPEQNTFSTQSKSTVFSVGKTIARQLRGSEAFVFFAATAGTEFEVFQHTLQQEEDMVKIYIADSLGSIIAEKTADCMEVALAEYIREKNWKHTNRYSPGYCGWHVSEQQKLFPLFPIAAPCGIRLTDSSLMVPIKSVSGVIGTGTNVRKLEYTCGLCTYENCYRKRKHR | not soluble
17 | SNAMLFCDDSKKYLKEQNINLKNEFDKDDKRVEKFSLKHQNIYFDYSKNLINDYILKSLLESAEKSSLKDKIKQMFNGAKINSTEHRAVLHTALRDLSSTPLIVDGQDIRQEVTKEKQRVKELVEKVVSGRWRGFSGKKITDIVNIGIGGSDLGPKMVVRALQPYHCTDLKVHFVSNVDADSLLQALHVVDPETTLLIIASKSFSTEETLLNSISAREWLLDHYEDEKAVANHFVAISSKLDKVKEFGIDLEHCYKMWDWVGGRYSLWSSIGMSIAFAIGYDNFEKLLAGAYSVDKHFKETEFSKNIPVIMALLASYYSCTYNSQSQALLPYDERLCYFVDYLQQADMESNGKSVNIAGETVNYQTGVVLWGGVGTNGQHAFHQLLHQGNIFIPVDFIAIATSHHNYDNHQQALLANCFAQSQALMFGQSYDMVYNELLKSGLNETQAKELAAHKVIPGNRPSTTILLDELSPYSLGALIALYEHKIFVQGVLWDINSYDQWGVELGKKLGKNILKAMNDDSSDEYQNLDDSTRQLIAKVKNK | soluble
18 | MRGSHHHHHHGIRMRARYPAFSVNYDSSFGGYSIHDYLGQWASTFGDVNHTNGNVTDANSGGFYGGSLSGSQYAISSTANQVTAFVAGGNLTYTLFNEPAHTLYGQLDSLSFGDGLSGGDTSPYSIQVPDVSFGGLNLSSLQAQGHDGVVHQVVYGLMSGDTGALETALNGILDDYGLSVNSTFDQVAAATAVGVQHADSPELLAA | soluble
19 | MGAGASAEEKHSRELEKKLKEDAEKDARTVKLLLLGAGESGKSTIVKQMKIIHQDGYSLEECLEFIAIIYGNTLQSILAIVRAMTTLNIQYGDSARQDDARKLMHMADTIEEGTMPKEMSDIIQRLWKDSGIQACFDRASEYQLNDSAGYYLSDLERLVTPGYVPTEQDVLRSRVKTTGIIETQFSFKDLNFRMFDVGGQRSERKKWIHCFEGVTAIIFCVALSDYDLVLAEDEEMNRMHESMKLFDSICNNKWFTDTSIILFLNKKDLFEEKIKKSPLTICYPEYAGSNTYEEAGNYIKVQFLELNMRRDVKEIYSHMTCATDTQNVKFVFDAVTDIIIKENLKDCGLF | soluble
